Legend:
Lrp [1] = target: T1, Lrp (Dickeya oryzae EC1, UniProt A0AB39ITC9 1-164); assay: EMSA; settings: protein: recombinant; tags: GST tag removed with PreScission protease (pGEX-6P-1, BamHI/EcoRI-site primers; N-terminal vector residues may remain); chain copies: 2
T1 sequence: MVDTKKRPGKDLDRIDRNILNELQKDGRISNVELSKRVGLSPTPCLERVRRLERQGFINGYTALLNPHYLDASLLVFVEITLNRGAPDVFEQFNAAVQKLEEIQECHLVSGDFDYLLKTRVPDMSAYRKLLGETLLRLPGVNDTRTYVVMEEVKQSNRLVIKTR

Lrp [2] = target: T1, Lrp; assay: EMSA; 1 uM Lrp, 20 fmol probe; settings: protein: recombinant; tags: GST tag removed with PreScission protease (pGEX-6P-1, BamHI/EcoRI-site primers; N-terminal vector residues may remain); chain copies: 2; label: biotin

B1: PzmsA(24)PM (dsDNA)
DNA 1: GTGTGAAAAGAGTGAGAGACCACG
DNA 2: CGTGGTCTCTCACTCTTTTCACAC
Lrp [1]
  binding result: no binding

B2: PzmsA(24) (dsDNA)
DNA 1: GTGTAATTATGGGCGTGCTCCGGG
DNA 2: CCCGGAGCACGCCCATAATTACAC
Lrp [2]
  binding result: binds
